Source: article PMC4258470 (Journal of molecular biology, 2014)
Read-outs that look alike come from different tables or passages of the source. Where no end group is shown, it is not given here. [ ]: non-standard residue; d: D form. pS = N[C@@H](COP(=O)(O)O)C(=O)O

T1: E7(1-98), full length HPV16 E7, unphosphorylated, MBP removed (HPV16, UniProt P03129 1-98)
T1 sequence: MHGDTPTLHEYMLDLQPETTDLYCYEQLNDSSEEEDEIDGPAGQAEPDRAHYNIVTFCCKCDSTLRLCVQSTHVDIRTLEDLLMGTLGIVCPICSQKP

T2: H6GB1-E7(1-98), full length HPV16 E7 fused to His6-GB1, unphosphorylated (HPV16, UniProt P03129 1-98)
T2 sequence: T1 sequence

T3: H6GB1-E7(1-98), full length HPV16 E7 fused to His6-GB1, phosphorylated by CKII (HPV16, UniProt P03129 1-98)
T3 sequence: T1 sequence

B1: TAZ2 domain of mouse CBP (residues 1764-1855) (domain or fragment, UniProt P45481 1764-1855, looked up)
chain: SPQESRRLSIQRCIQSLVHACQCRNANCSLPSCQKMKRVVQHTKGCKRKTNGGCPVCKQLIALCCYHAKHCQENKCPVPFCLNIKHKLRQQQ
B2: H6Rb-AB, His6-tagged central pocket of the retinoblastoma protein (domain or fragment)
chain: HTPVRTVMNTIQQLMMILNSASDQPSENLISYFNNCTVNPKESILKRVKDIGYIFKEKFAKAVGQGCVEIGSQRYKLGVRLYYRVMESMLKSEEERLSIQNFSKLLNDNIFHMSLLACALEVVMATYSRSTSQNLDSGTDLSFPWILNVLNLKAFDFYKVIESFIKAEGNLTREMIKHLERCEHRIMESLAWLSDSPLFDLIKQSKGSGSTSLSLFYKKVYRLAYLRLNTLCERLLSEHPELEHIIWTLFQHTLQNEYELMRDRHLDQIMMCSMYGICKVKNIDLKFKIIVTAYKDLPHAVQETFKRVLIKEEEYDSIIVFYNSVFMQRLKTNILQYAST
B3: pp6b-E7(1-51), phosphorylated E7(1-51) from low risk HPV6b (domain or fragment)
chain: MHGRHVTLKDIVLDLQPPDPVGLHCYEQLVDSSEDEVDEVDGQDSQPLKQH
modifications: also: phosphorylated by CKII, positions not given here
B4: 6b-E7(1-51), unphosphorylated E7(1-51) from low risk HPV6b (domain or fragment)
chain: B3 chain
B5: ppE7(1-51) C24A,A50C-594, HPV16 E7(1-51) double mutant, phosphorylated and labelled with Alexa Fluor 594 (domain or fragment)
chain: MHGDTPTLHEYMLDLQPETTDLYAYEQLND[pS][pS]EEEDEIDGPAGQAEPDRC(Alexa Fluor 594)H
B6: ppE7(1-51), HPV16 E7(1-51) phosphorylated by casein kinase II at serines 31 and 32 (domain or fragment)
chain: MHGDTPTLHEYMLDLQPETTDLYCYEQLND[pS][pS]EEEDEIDGPAGQAEPDRAH
B7: E7(1-51) from HPV16, unphosphorylated, tag removed (domain or fragment)
chain: MHGDTPTLHEYMLDLQPETTDLYCYEQLNDSSEEEDEIDGPAGQAEPDRAH

Tests used:
[1] = biological target: T1, E7(1-98), full length HPV16 E7, …; experiment: NMR titration
[2] = biological target: T2, H6GB1-E7(1-98), full length HPV16 E7 …; experiment: pull-down
[3] = biological target: T2, H6GB1-E7(1-98), full length HPV16 E7 …; experiment: pull-down; remark: listed apart in the source
[4] = biological target: T3, H6GB1-E7(1-98), full length HPV16 E7 …; experiment: pull-down
[5] = biological target: B1; experiment: fluorescence polarisation
[6] = biological target: B1; experiment: fluorescence polarisation; remark: listed apart in the source
[7] = biological target: B1; experiment: NMR titration
[8] = biological target: TAZ1 domain of mouse CBP (residues 345-439) (mouse, UniProt P45481 345-439); experiment: NMR titration
Chain of TAZ1 domain of mouse CBP (residues 345-439) (P45481 345-439): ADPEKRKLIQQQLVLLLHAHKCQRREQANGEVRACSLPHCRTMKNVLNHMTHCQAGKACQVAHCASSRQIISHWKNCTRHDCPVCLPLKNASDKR

## B1
[1]
  binding result: binds
[2]
  binding result: binds

## B2
[3]
  binding result: binds
[4]
  binding result: binds

## B3
[5]
  Kd: 31 ± 3 nM

## B4
[5]
  Kd: 79 ± 10 nM

## B5
[6]
  Kd: 28 ± 6 nM

## B6
[7]
  Kd of the primary binding site (Kd1, 2-site model): 4 ± 3 nM
  Kd of the secondary binding site (Kd2, 2-site model): 33000 ± 2000 nM
[8]
  Kd: 7000 ± 300 nM
[5]
  Kd: 7 ± 3 nM

## B7
[5]
  Kd: 22 ± 6 nM
